{"source": "paper doi:10.1101/553511", "about": "(bioRxiv, 2019)", "proteins": {"B1": {"name": "KAP1 full length protein (KAP1 FL, 1-835) (natural protein)", "chain": "MAASAAAASAAAASAASGSPGPGEGSAGGEKRSTAPSAAASASASAAASSPAGGGAEALELLEHCGVCRERLRPEREPRLLPCLHSACSACLGPAAPAAANSSGDGGAAGDGTVVDCPVCKQQCFSKDIVENYFMRDSGSKAATDAQDANQCCTSCEDNAPATSYCVECSEPLCETCVEAHQRVKYTKDHTVRSTGPAKSRDGERTVYCNVHKHEPLVLFCESCDTLTCRDCQLNAHKDHQYQFLEDAVRNQRKLLASLVKRLGDKHATLQKSTKEVRSSIRQVSDVQKRVQVDVKMAILQIMKELNKRGRVLVNDAQKVTEGQQERLERQHWTMTKIQKHQEHILRFASWALESDNNTALLLSKKLIYFQLHRALKMIVDPVEPHGEMKFQWDLNAWTKSAEAFGKIVAERPGTNSTGPAPMAPPRAPGPLSKQGSGSSQPMEVQEGYGFGSGDDPYSSAEPHVSGVKRSRSGEGEVSGLMRKVPRVSLERLDLDLTADSQPPVFKVFPGSTTEDYNLIVIERGAAAAATGQPGTAPAGTPGAPPLAGMAIVKEEETEAAIGAPPTATEGPETKPVLMALAEGPGAEGPRLASPSGSTSSGLEVVAPEGTSAPGGGPGTLDDSATICRVCQKPGDLVMCNQCEFCFHLDCHLPALQDVPGEEWSCSLCHVLPDLKEEDGSLSLDGADSTGVVAKLSPANQRKCERVLLALFCHEPCRPLHQLATDSTFSLDQPGGTLDLTLIRARLQEKLSPPYSSPQEFAQDVGRMFKQFNKLTEDKADVQSIIGLQRFFETRMNEAFGDTKFSAVLVEPPPMSLPGAGLSSQELSGGPGDGP"}, "B2": {"name": "ΔKAP1 (23-812) (domain or fragment)", "chain": "GEGSAGGEKRSTAPSAAASASASAAASSPAGGGAEALELLEHCGVCRERLRPEREPRLLPCLHSACSACLGPAAPAAANSSGDGGAAGDGTVVDCPVCKQQCFSKDIVENYFMRDSGSKAATDAQDANQCCTSCEDNAPATSYCVECSEPLCETCVEAHQRVKYTKDHTVRSTGPAKSRDGERTVYCNVHKHEPLVLFCESCDTLTCRDCQLNAHKDHQYQFLEDAVRNQRKLLASLVKRLGDKHATLQKSTKEVRSSIRQVSDVQKRVQVDVKMAILQIMKELNKRGRVLVNDAQKVTEGQQERLERQHWTMTKIQKHQEHILRFASWALESDNNTALLLSKKLIYFQLHRALKMIVDPVEPHGEMKFQWDLNAWTKSAEAFGKIVAERPGTNSTGPAPMAPPRAPGPLSKQGSGSSQPMEVQEGYGFGSGDDPYSSAEPHVSGVKRSRSGEGEVSGLMRKVPRVSLERLDLDLTADSQPPVFKVFPGSTTEDYNLIVIERGAAAAATGQPGTAPAGTPGAPPLAGMAIVKEEETEAAIGAPPTATEGPETKPVLMALAEGPGAEGPRLASPSGSTSSGLEVVAPEGTSAPGGGPGTLDDSATICRVCQKPGDLVMCNQCEFCFHLDCHLPALQDVPGEEWSCSLCHVLPDLKEEDGSLSLDGADSTGVVAKLSPANQRKCERVLLALFCHEPCRPLHQLATDSTFSLDQPGGTLDLTLIRARLQEKLSPPYSSPQEFAQDVGRMFKQFNKLTEDKADVQSIIGLQRFFETRMNEAFGDTKFSAVLVEP"}, "B3": {"name": "KAP1 RBCC domain (RBCC, 23-418) (domain or fragment)", "chain": "GEGSAGGEKRSTAPSAAASASASAAASSPAGGGAEALELLEHCGVCRERLRPEREPRLLPCLHSACSACLGPAAPAAANSSGDGGAAGDGTVVDCPVCKQQCFSKDIVENYFMRDSGSKAATDAQDANQCCTSCEDNAPATSYCVECSEPLCETCVEAHQRVKYTKDHTVRSTGPAKSRDGERTVYCNVHKHEPLVLFCESCDTLTCRDCQLNAHKDHQYQFLEDAVRNQRKLLASLVKRLGDKHATLQKSTKEVRSSIRQVSDVQKRVQVDVKMAILQIMKELNKRGRVLVNDAQKVTEGQQERLERQHWTMTKIQKHQEHILRFASWALESDNNTALLLSKKLIYFQLHRALKMIVDPVEPHGEMKFQWDLNAWTKSAEAFGKIVAERPGTNST"}}}
{"biological_target": "the molecule itself", "test": "SEC-MALS"}
{"protein": "B1", "stoichiometry N": 2}
{"protein": "B2", "stoichiometry N": 2}
{"protein": "B3", "stoichiometry N": 2}
